Experimental data from patent US20240352438A1, “MEANS AND METHODS FOR DETOXIFYING OCHRATOXIN A” (DSM Austria GmbH, priority 2021, published 2024).

Assay: OTA detoxification activity assay (specific activity, fluorescence reduction ex/em 390/450 nm)
Type: biochemical
Settings: for Specific OTA detoxification activities in % compared to the enzyme of SEQ ID NO: 1, pH 6.0 / Specific OTA detoxification activities in % compared to the enzyme of SEQ ID NO: 1, pH 7.5: SEQ ID NO: 1 = 100%
Procedure: To determine the specific activity of recombinant target polypeptides produced e.g. as described in Example 2 above in units per liter (U/L), ochratoxin A (OTA) detoxification activity assays were performed. One unit is defined as the amount of enzyme necessary for degradation of 1 μmol or OTA in 1 min when using a starting OTA concentration of […].
OTA detoxification activity assays were set up in a final volume of the reaction mixture of […], containing the recombinant enzyme preparation (preferably diluted to yield a volumetric activity of 1-10 mU/L), and 200 ng/mL OTA in 100 mM sodium phosphate buffer.
Specific activities were determined at pH 6.0 and pH 7.5. As soon as all components of the reaction mixture were mixed, OTA degradation was followed at 37° C. on a fluorescence spectrophotometer (BioTek Synergy H1 MFD Multimode microplate reader) by following the reduction in fluorescence at ex/em 390 nm/450 nm. For work performed at pH 6.0 and 7.5, a 100 mM sodium phosphate buffer was used.
For calculation of the specific activity, the initial linear part of the recorded fluorescence reduction curve was used. In addition to the fluorescence-based method described above, OTA degradation was also determined by using the HPLC-MS method as described by Dellafiora et al. 2020, Toxins 12, 258, essentially confirming the fluorescence-based results. Genes encoding either of the indicated SEQ ID NOs are expressed as described herein and the specific activities for the obtained polypeptide preparation are exemplarily shown in Table 8. Analogously, enzymatic activities using either ochratoxin B, C or TA as substrate or can be found.

Row | Molecule | % of the activity of the non-mutated enzyme of SEQ ID NO: 318 at pH 6 [%] | % of the activity of the non-mutated enzyme of SEQ ID NO: 318 at pH 7.5 [%] | Specific OTA detoxification activities in % compared to the enzyme of SEQ ID NO: 1, pH 6.0 [%] | Specific OTA detoxification activities in % compared to the enzyme of SEQ ID NO: 1, pH 7.5 [%]
1 | I308V/V355L: variant of the enzyme of SEQ ID NO: 318 having the mutation combination I308V/V355L (protein, exemplary polypeptide) MTTRTRILTAFLSLLAANACAADAAPAAPHTVVLRAARMFDGASGKLVDHPQLTIVGNKIVRIAQGDKAEVPAGAEVVDLGDATLLPGFIDAHVHLSGQSSDNWYGDFFDNMMRFPAEQALYGAYYARITLEAGFTSVRDVGSTDWVALGLRNAIDAGKVPGPRMLVSNYAVGSTGGHADQDPIPPHKLPLAGPLQGVCNGPEECRAAVRYQIKYGANVIKFMPSGGVLSLSDPVDAPELSQDEMNAVIGESHAWGRKVAAHAHGDKAAKMAVAAGVDSIEHGSFIEDDTLRAMKAKNVYLVPTISAVAHVEEKIGTFPPVIAEKGRAAAAHLRQTFRHAVQIGVPIALGTDAGLGAHGSNAREFRYMVENGLTPAQALLAGTANAARLLGTFDRVGTLEAGKLADVVAVPGNPIADITVTERPLFVMKDGVVVRRDAVR | 209 | 189 |  | 
2 | 176 (protein, exemplary polypeptide) MTTRTRILTAFLSLLAANACAADAAPAAPHTVVLRAARMFDGASGKLVDHPQLTIVGNKIVRIAQGDKAEVPAGAEVVDLGDATLLPGFIDAHVHLSGQSSDNWYGDFFDNMMRFPAEQALYGAYYARITLEAGFTSVRDVGSTDWVALGLRNAIDAGKVPGPRMLVSNYAVGSTGGHADQDPVPPHKLPLAGPLQGVCNGPEECRAAVRYQIKYGANVIKFMPSGGVLSLSDPVDAPELSQDEMNAVIGESHAWGRKVAAHAHGDKAAKMAVAAGVDSIEHGSFIEDDTLRAMKAKNVYLVPTISAVAHVEEKIGTFPPVIAEKGRAAAAHLRQTFRHAVQIGVPIALGTDAAVGAHGSNAREFRYMVENGLTPAQALLAGTANAARLLGTFDRVGTLEAGKLADVVAVPGNPIADITVTERPLFVMKDGVVVRRDAVR |  |  | 112 | 95
3 | 171 (protein, exemplary polypeptide) MTTRTRILTAFLSLLAANACAADAAPAAPHTVVLRAARMFDGASGKLVDHPQLTIVGNKIVRIAQGDKAEVPAGAEVVDLGDATLLPGFIDAHVHLSGQSSDNWYGDFFDNMMRFPAEQALYGAYYARITLEAGFTSVRDVGSTDWVALGLRNAIDAGKVPGPRMLVSNYPVGSTGGHADQDPIPPHKLPLAGPLQGVCNGPEECRAAVRYQIKYGANVIKFMPSGGVLSLSDPVDAPELSQDEMNAVIGESHAWGRKVAAHAHGDKAAKMAVAAGVDSIEHGSFIEDDTLRAMKAKNVYLVPTISAVAHVEEKIGTFPPVIAEKGRAAAAHLRQTFRHAVQIGVPIALGTDAAVGAHGSNAREFRYMVENGLTPAQALLAGTANAARLLGTFDRVGTLEAGKLADVVAVPGNPIADITVTERPLFVMKDGVVVRRDAVR |  |  | 69 | 37
4 | 161 (protein, exemplary polypeptide) MTTRTRILTAFLSLLAANACAADAAPAAPHTVVLRAARMFDGASGKLVDHPQLTIVGNKIVRIAQGDKAEVPAGAEVVDLGDATLLPGFIDAHVHLSGQSSDNWYGDFFDNMMRFPAEQALYGAYYARITLEAGFTSVRDVGSTDWVALGLRNAIDAGKVPGPRMLVSNYAVGSTGGHADQDPIPPHKLPLAGPLQGVCNGPEECRAAVRYQIKYGANVIKFMPSGGVLSLSDPVDAPELSQDEMNAVIGESHAWGRKVAAHAHGDKAAKMAVAAGVDSIEHGSFIEDDTLRAMKAKNVYLVPTISAAAHVEEKIGTFPPVIAEKGRAAAAHLRQTFRHAVQIGVPIALGTDAAVGAHGSNAREFRYMVENGLTPAQALLAGTANAARLLGTFDRVGTLEAGKLADVVAVPGNPIADITVTERPLFVMKDGVVVRRDAVR |  |  | 132 | 110
5 | 185 (protein, exemplary polypeptide) MTTRTRILTAFLSLLAANACAADAAPAAPHTVVLRAARMFDGASGKLVDHPQLTIVGNKIVRIAQGDKAEVPAGAEVVDLGDATLLPGFIDAHVHLSGQSSDNWYGDFFDNMMRFPAEQALYGAYYARITLEAGFTSVRDVGSTDWVALGLRNAIDAGKVPGPRMLVSNYAVGSTGGHADQDPIPPHKLPLAGPLQGVCNGPEECRAAVRYQIKYGANVIKFMPSGGVLSLSDPVDAPELSQDEMNAVIGESHAWGRKVAAHAHGDKAAKMAVAAGVDSIEHGSFIEDDTLRAMKAKNVYLVPTISAIAHVEEKIGTFPPVIAEKGRAAVAHLRQTFRHAVQIGVPIALGTDAGVGAHGSNAREFRYMVENGLTPAQALLAGTANAARLLGTFDRVGTLEAGKLADVVAVPGNPIADITVTERPLFVMKDGVVVRRDAVR |  |  | 32 | 18
6 | 178 (protein, exemplary polypeptide) MTTRTRILTAFLSLLAANACAADAAPAAPHTVVLRAARMFDGASGKLVDHPQLTIVGNKIVRIAQGDKAEVPAGAEVVDLGDATLLPGFIDAHVHLSGQSSDNWYGDFFDNMMRFPAEQALYGAYYARITLEAGFTSVRDVGSTDWVALGLRNAIDAGKVPGPRMLVSNYAVGSTGGHADQDPIPPHKLPLAGPLQGVCNGPEECRAAVRYQIKYGANVIKFMPSGGVLSLSDPVDAPELSQDEMNAVIGESHAWGRKVAAHAHGDKAAKMAVAAGVDSIEHGSFIEDDTLRAMKAKNVYLVPTISAAAHVEEKIGTYPPVIAEKGRAAAAHLRQTFRHAVQIGVPIALGTDAAVGAHGSNAREFRYMVENGLTPAQALLAGTANAARLLGTFDRVGTLEAGKLADVVAVPGNPIADITVTERPLFVMKDGVVVRRDAVR |  |  | 85 | 88
7 | 172 (protein, exemplary polypeptide) MTTRTRILTAFLSLLAANACAADAAPAAPHTVVLRAARMFDGASGKLVDHPQLTIVGNKIVRIAQGDKAEVPAGAEVVDLGDATLLPGFIDAHVHLSGQSSDNWYGDFFDNMMRFPAEQALYGAYYARITLEAGFTSVRDVGSTDWVALGLRNAIDAGKVPGPRMLVSNYPVGSTGGHADQDPIPPHKLPLAGPLQGVCNGPEECRAAVRYQIKYGANVIKFMPSGGVLSLSDPVDAPELSQDEMNAVIGESHAWGRKVAAHAHGDKAAKMAVAAGVDSIEHGSFIEDDTLRAMKAKNVYLVPTISAIAHVEEKIGTYPPVIAEKGRAAAAHLRQTFRHAVQIGVPIALGTDAAVGAHGSNAREFRYMVENGLTPAQALLAGTANAARLLGTFDRVGTLEAGKLADVVAVPGNPIADITVTERPLFVMKDGVVVRRDAVR |  |  | 62 | 70
8 | 170 (protein, exemplary polypeptide) MTTRTRILTAFLSLLAANACAADAAPAAPHTVVLRAARMFDGASGKLVDHPQLTIVGNKIVRIAQGDKAEVPAGAEVVDLGDATLLPGFIDAHVHLSGQSSDNWYGDFFDNMMRFPAEQALYGAYYARITLEAGFTSVRDVGSTDWVALGLRNAIDAGKVPGPRMLVSNYPVGSTGGHADQDPIPPHKLPLAGPLQGVCNGPEECRAAVRYQIKYGANVIKFMPSGGVLSLSDPVDAPELSQDEMNAVIGESHAWGRKVAAHAHGDKAAKMAVAAGVDSIEHGSFIEDDTLRAMKAKNVYLVPTISAAAHVEEKIGTFPPVIAEKGRAAAAHLRQTFRHAVQIGVPIALGTDAAVGAHGSNAREFRYMVENGLTPAQALLAGTANAARLLGTFDRVGTLEAGKLADVVAVPGNPIADITVTERPLFVMKDGVVVRRDAVR |  |  | 49 | 32
9 | F318Y/V355L: variant of the enzyme of SEQ ID NO: 318 having the mutation combination F318Y/V355L (protein, exemplary polypeptide) MTTRTRILTAFLSLLAANACAADAAPAAPHTVVLRAARMFDGASGKLVDHPQLTIVGNKIVRIAQGDKAEVPAGAEVVDLGDATLLPGFIDAHVHLSGQSSDNWYGDFFDNMMRFPAEQALYGAYYARITLEAGFTSVRDVGSTDWVALGLRNAIDAGKVPGPRMLVSNYAVGSTGGHADQDPIPPHKLPLAGPLQGVCNGPEECRAAVRYQIKYGANVIKFMPSGGVLSLSDPVDAPELSQDEMNAVIGESHAWGRKVAAHAHGDKAAKMAVAAGVDSIEHGSFIEDDTLRAMKAKNVYLVPTISAIAHVEEKIGTYPPVIAEKGRAAAAHLRQTFRHAVQIGVPIALGTDAGLGAHGSNAREFRYMVENGLTPAQALLAGTANAARLLGTFDRVGTLEAGKLADVVAVPGNPIADITVTERPLFVMKDGVVVRRDAVR | 197 | 138 |  | 
